The text below walks through data of a protein production outcome set (Wang et al. 2014).
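Further: failed if final PepcDB status was selected cloned or expressed and not failed if soluble or beyond.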

The nature of the series: label from the status in PepcDB records.
Regarding “MKTITTTKSPTVKDYIDAYLIERKYCAAPSTLASDLSRAKNINEALGEFPINAVSHTQINMLLVSWHERFRNKTINEHLTILRRISLKAVRDGVIARNPMTGVQNFKTVDPEPNPFTKKELARMHECKNVCTQGQNAVMLNLLTGLRISELIALSWQDINWEREVLYVRRACVLNIYKCPKTKGSVREVDLNPLALKLLKEQLKLTGKRRPQTINILECDNKTFTKDSVSFIFLNTKTNQPFTDAKEFTERFFIKFLEQAGVAHRGVGQLRHTFASQCLTTGISKDWLAVQMGHKSTTMIDKHYGRWIREDSPNYAREAAQHLQDIFGLPQIKPTVTLPAVPHSSLVLLKKLQSKPQLIQLLEGMLESDR”, the protein production entry is given as “failed”.

For “MKTKIIGVLGLGIFGQTLAQELSNFEQDVIAIDSNPENVQAVAEVVTKAAIGDITDLAFLKHIGISDCDTVIIATGNSLESSVLAVMHCKKLGVPQVIAKARNLVYEEVLYEIGADLVISPERESGQNVAANLMRNKITDVFQIESDISVIEFKIPKSWVGKTVEQLNIRHKFDLNLIGIRKAKNKPVDTEVPINSPLEEGIILVAIANSDAFQRYDYLGYFNLEHHHHHH”, the protein production result is reported as “not failed”.

As for “MKTKLMTLQDATGFFRDGMTIMVGGFMGIGTPSRLVEALLESGVRDLTLIANDTAFVDTGIGPLIVNGRVRKVIASHIGTNPETGRRMISGEMDVVLVPQGTLIEQIRCGGAGLGGFLTPTGVGTVVEEGKQTLTLDGKTWLLERPLRADLALIRAHRCDTLGNLTYQLSARNFNPLIALAADITLVEPDELVETGELQPDHIVTPGAVIDHIIVSQESK”, the protein production result was “not failed”.

As for “MKTKYIIASLGLATLLSFGANAAVHQVNAEQAQNLQPMGTISVSQIGSTPMDMRQEIVAKAEKAGANSYRIIELKEGDNWHATAELYKLEHHHHHH”, the protein production result was “failed”.

As for “MKTLHVQTASSSYPVFIGQGIRKKACELLTSLNRPLTRIMFVTDEEVDRLYGDEMLHLLQEKWPVKKVTVPSGEQAKSMDMYTKLQSEAIRFHMDRSSCIIAFGGGVVGDLAGFVAATFMRGIDFIQMPTTLLAHDSAVGGKVAVNHPLGKNLIGAFYQPKAVLYDTDFLRSLPEKELRSGMAEVIKHAFIYDRAFLEELLNIHSLRDITNDQLNDMIFKGISIKASVVQQDEKEEGIRAYLNFGHTLGHAVEAEYGYGQITHGDAVALGMQFALYISEKTVGCEMDRKRLVSWLKSLGYPSQIRKETETSVLLNRMMNDKKTRGGKIQFIVLNELGKVADHTFSRNELESWLNKWRLEETS”, the protein production entry is recorded as “failed”.

Take “MKTPTSRPVVLCLSGHDPSGGAGLQADIEALLAQGCHAAPAVTALTVQDTVNVSDFRVLDREWVLAQANAVLADLPVAAVKLGMLGSLEMVDTVAEILAAHPHLPVVCDPVLRAGGGGALGKGDVGFAMRERLLPRATIATPNLPEARLLADLPEGSADQCAERLLEHCEHLLITGGHGDESEVHNRLYSRDGSRRTFTCQRLPGSYHGSGCTLASALAGRIALGEALHGAVQSALDYTWRTLRDAESPGHGQYVPRRLPTDFCH”: the protein production entry is on record as “failed”.

For the sequence “MKTRLLPVAPSAGTLPGLPDAAELAVLRAWHAGLSAREAVERYLGERRAPGQSSRGILGRIRRQLAAFARRRQREDLALLFEIAATERARQGRVADQAVELLRTLPLPEPAISDDVALWLDARAVTVLRAAGIDTLADLTVRVPRRRRWWAAIPGLGQAGARRIEAFFAEHPRLTERAKALIAEQPRGVVVPWEQLRLPHEVDGSEGQFRAPRETSVLTADNDYEAVQAWLSLHESPATQRAYRKEAERLILWAIIERGRPLSSLTTEDAIAYRGFLRRPSPHERWVGPARPRASADWRPFTDGLSARSIAYSLSVLGAMFRWLIQQRYVLANPFAGIKVRGGGRTAALDASHAFSEGEWALVRTLADGLEWSYGWEAAAAQRLRFVLDFAYATGLRASELITARLGGIETDRQSDHWLSLIGKGGRAGKVALPPLARTALDRYLVERGLPVTQARWNPQTPLIGALGLDPGGGITGSRLWSVMRRFFRVAADLIERDHTALAEKLRKASPHWMRHTHASHALARGAELTTVRDNLRHASISTTSIYLHGDDVKRARQIEAAFAAK”, the protein production entry was “failed”.

Consider “MKTSQEELLPATRRALLHRIAVAQAEGRAPSLAAAVVRGGQTVWYGSRTSVDGHAPDENVQYRIGSITKTFTAVLVLRLRDEGVLDLGDPLEKHLPGTGAGEATIAELLAHTGGLAAESPAPWWERTPGSLRPELADVLGELPLRHPVGRRHHYSNPGYTLLGALVEELRGAPWEEVLRREVLEPLGMRRTSGDPRAPHAGGWAVHPWADVMLPEPAEDLGRMAPAGQLWSTTGDLARFAVFLAQGDERVLSADSVREMRTPAAPAEAADVMSGSAYGLGMQLQYRDGRLLVGHSGSLPGFLANLTVSVEDDLAAVVLVNCTSGPMPSAVAADLVRIVAEAEPRIPEPWRPLPDVDEGVLELAGQWYWGTQAFVLRLTVDGGVSLEPLSGVGRRARLRANGDGTWTGLDGYYAGELLKAVRRPDGSVSHLDLGSFVFTRQPYDEGAPVPGGVDPEGWRGIP”, for which the protein production entry is listed as “failed”.

In the case of “MKTSVKFETIFPLTTAPLIQCITNEITCESMANALLYIDAKPIMADDPREFPQMFQQTSALVLNLGHLSQEREQSLLAASDYARQVNKLTVVDLVGYGASDIRNEVGEKLVHNQPTVVKGNLSEMRTFCQLVSHGRGVDGSPLDQSEEAIEELIQALRQQTQKFPQTVFLATGIQDVLVSQEQVIVLQNGVPELDCFTGTGDLVGALVAALLGEGNAPMTAAVAAVSYFNLCGEKAKTKSQGLADFRQNTLNQLSLLMKEKDWFEAVKGRVL”, the protein production result is recorded as “not failed”.

For the sequence “MKTTIQTITLILGLFISSLAIASPEFPTQEPMGGKTFGHSVKHVGNGIYVFRWWVYRNFFVVTDDGVIVSDPLNPKAAKLLQSEIRKITDKPVKYVVYSHNHHDHISGGNIFKAEGAKFIGHKNLLKQLKDHPSPVLPIPDIVFEDTYTLTLGNRTLELSYFGPNHGDSLVVMRFPKEKILFVVDIVTPRRVAFRGMPDFWPDEWVRSLKEIELMDVDYVISAHGPENQPAIDPASVIKEQRVYIEDLMAAVKLKMDEGVHSPDALRKQVKLPKYEHWQYYEQWLPMNIERIWAYYHMGW”, the protein production entry is “failed”.

With “MKTTLLKTLTPELHLVQHNDIPVPSLKTCGWNTKNFPCKGHSLSVGXPQNAKQDVLWLSEVEPFKNGNAIRGGVPICYPWFGGVKQPAHGTARIRLWQLSHYYISVHKVRLEFELFSDLNIIEAKVSMVFTDKCHLTFTHYGEESAQAALHTYFNIGDINQVEVQGLPETCFNSLNQQQENVPSPRHISENVDCIYSAENMQNQILDKSFNRTIALHHHNASQFVLWNPWHKKTSGMSETGYQKMLCLETARIHHLLEFGESLSVEISLKG”, the protein production result is “not failed”.

For the sequence “MKTTPDILDQIRVHGADAYPEEGCGFLLGTVTDDGDNRVAALHRATNRRSEQRTRRYELTADDYRAADAAAQEQGLDVVGVYHSHPDHPARPSATDLEEATFPGFTYVIVSVRDGAPEALTAWALAPDRSEFHREDIVRPDPEAPLEHHHHHH”, the protein production entry was “failed”.

As for “MKTWFKYIKLLLLSVCTFLLVTGCNSNVSKLPSNQTTSNITTNCRVINHEAGKTQICGQPKKVVALSPPVLDMMLALGVQPAGYAEVDLLNSKVFDRPKEQIPYLGDRITSQPMNVGDRGNPSLESLLQLKPDLILGEASYNETEYQILNKIAPTILISHRDGITPAWQQTISIIAQALGREDKVPTVIAEYEQKLSQAKTAIAPIAQHQELLLLAFRGITLTSFTFGAETFAGGLLQDLGFKLVSPESTEYEVALEVLPKFKSDLIVIMPSGNNNIENAKRQWSQNPILQSISAHNTNRIYFIDYQLASRIRGPIAAELFVNQVRQLLS”, the protein production result was “failed”.

As for “MKVDVDEKTYIITMANDITKLYEENKRNLHYSITDPLTGAYNRKYLNDRFDIFIGDYIVLIDLDNFKMINDYEGHNVGDKILCDFVSLLNKELINSTSIIRLGGDEFIVIFSSDVDKNYVYSQLEALRENFLKVFSKYKYLSFSYGVDTVKRNLKLTIVELDKKMYKNKEKLEHHHHHH”, the protein production entry is given as “failed”.

Consider “MKVELTAIEARVIGCLIEKEVTTPDQYPLSLNALTNASNQKSNREPVMALSESDVLDAVDALIERRLVSDESAFNSRVSKYQHRFCNTEFGDLKLSEQEKGIICCMLLRGAQTPGEIRTRTNRLATFHDVKEVEAVLEHLASEEKGPLVVKLPREAGKRESRYMHLFCGEVDVSAMAAAVPATSSSSVRIAQLEQEVAELREELDALKAQVESLLS”, for which the protein production entry was “not failed”.

Take “MKVERRTIEYIPNEERHGKAKDLFPVWFGANMHITTLVTGTIPVAMGLNLFWSVAAIICGTLIGAIFMASHSAQGPQLGIPQMIQSRAQFGVIGAILPLFLVMFIYLGFFASSTILAAGTLSSFVPIPGSWSIIGLSAVCFLLTIFGHDLIHKMQKILSWTSFAVFFAATILIFQLPIPAGSWIPGAIDLPIFLVAVSAVATWQLAYAPYVADYSRYLPVKTPASKTFWYSYAGTSVSSIWMMLLGALLTTSLPDFTANSGSQIVQLFGPFSFIMLIIVLFGQMAINVFNLYGAFMSTTTTLEPFLKLKVTPKVRIIMILGVTLVGTVLSLLGQSNFMELFLNFIFFISYFLIPWTAINLVDYYFVRHGKYQVKAMFDVNGPYGKVNWITTIAFVLSILLEIPFINTSFYIGPLAKMFGGGDIAWIIGLAVPSVLYYVLMKPRLKKRAGYQEKLSSL”: the protein production entry is on record as “failed”.

With “MKVIICGAGQVGYGIAEQLSREDNEVSVIDTAAPLITAITETLDVRGYVGHGAHPDMLAKAGADQADMIIAVTLHDEINIVACEVAHALFSVPTKIARIRDQSYMKPEYADLFSRENMSIDVTISPEVEVGKMVLRRIAFPGATDVVRFAEDTIYMLAIECMEDCPVINTPLQQLSSLFPDLIATVVGVYRDGILKVAHSSEQLRVGDLAYVICQRQHARRTLSLFGHEEQEAQRIVIAGAGNIGHFVAHKIEEMQSKTRVKIIEADRDRAIAASEQLSHTIVMHGSALDQKILMQADIQDADLIVTLTNNDQTNILAAVIAKQLGCKSNLALLNSTSFHDVARSLGLDAYINPRAVTISRVLQHVRKGRIRSVYAVQRGSAEVIEAEALETSPLVGQSFRDIDMPDGVRIGAIYRDGVVIRPDGSTKIKAKDRVVLFASADAVRDVEQLFRVSIQYF”, the protein production result was “failed”.

Take “MKVILVNGSPHKDGCTFTALEEVAKALNEEGIDTEFFHLGTKPLNGCIACGHCRKHQRCVFPDSVNEFLDLAQEADGFIFGSPVHYAAAGGAITSFLDRVFYTDSGSGKQAFYLKPAAAVVSARRAGTTASLDQLNRYFTIKEMPIISSKYWNMVHGNTPEEVRKDEEGLQIMRTLGRNMAWFLKCKEAGIRAGIPFPSQEEGLRTNFIRLEHHHHHH”: the protein production result is “not failed”.

For “MKVKDVCKLISLKPTVVEEDTPIEEIVDRILEDPVTRTVYVARDNKLVGMIPVMHLLKVSGFHFFGFIPKEELIRSSMKRLIAKNASEIMLDPVYVHMDTPLEEALKLMIDNNIQEMPVVDEKGEIVGDLNSLEILLALWKGREK”, the protein production result is given as “not failed”.

On to “MKVKIYTRNGCPYCVWAKQWFEENNIAFDETIIDDYAQRSKFYDEMNQSGKVIFPISTVPQIFIDDEHIGGFTELKANADKILNKK”, for which the protein production entry is “not failed”.

On to “MKVKLFAIHLFFIVISFGIKYYHLQGPNLIWNMTLALIALDFAYLTSLFKKKILIGLFALAWFFFYPNTFYMLTDIIHMHFVGDVLYNKTNLILYILYVSSILFGFLSGIESFSVIMRKFRISNIFLRWGIIGIVSLVSSFGIHIGRYARLNSWDILTKPQVVINELLAVPSRDSFHFILGFTFLQVLCLIFMDYSAGKKLEK”, for which the protein production result is given as “failed”.
